Experimental data from US20030219718, “Inhibitors of the S100-p53 protein-protein interaction and method of inhibiting cancer employing the same” (UNIVERSITY OF MARYLAND, BALTIMORE, published 2003).

Target: p53 (UniProt P04637 P04637:1-393)
Assay: EMSA; supershifted by p53 antibody; five times more protein and DNA needed than for GADD45; salmon sperm DNA 1.0 µg
Details: tags: baculovirus expressed, Protein Sciences Inc; chain copies: 4; label: T4 polynucleotide kinase end label
Experimental: Accordingly, mobility shift assays were performed with purified p53 to determine if these sequences in the promoter of S100B were bona fide p53 binding sites, using the GADD45 sequence as a positive control. […] The baculovirus expressed p53 was obtained from Protein Sciences Inc. (Baltimore, Md.). Baculovirus expressed p53 was used (0.6 and 3.0 μg) for binding to the GADD45 and the S100B oligonucleotides respectively.

Chain of p53 (P04637 whole entry, one chain of several): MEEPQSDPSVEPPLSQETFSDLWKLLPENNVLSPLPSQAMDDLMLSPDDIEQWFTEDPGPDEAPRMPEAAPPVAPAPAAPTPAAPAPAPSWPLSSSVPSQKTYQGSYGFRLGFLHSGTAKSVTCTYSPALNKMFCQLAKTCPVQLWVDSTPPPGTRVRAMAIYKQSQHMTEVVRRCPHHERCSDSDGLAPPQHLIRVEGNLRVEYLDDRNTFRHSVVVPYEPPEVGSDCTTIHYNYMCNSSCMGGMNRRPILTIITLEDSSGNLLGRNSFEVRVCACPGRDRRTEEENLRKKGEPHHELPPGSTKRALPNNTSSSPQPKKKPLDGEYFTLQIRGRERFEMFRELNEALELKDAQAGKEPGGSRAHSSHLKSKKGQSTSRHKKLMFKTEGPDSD

B1: S100B promoter p53 site (20/20 match, nt 1705-1735) (dsDNA)
DNA 1: GCCTGGGCAAGCTCTGTGCTTCACAGAGCAAGCCTGTGT
DNA 2: ACACAGGCTTGCTCTGTGAAGCACAGAGCTTGCCCAGGC
- binding result: binds
